Values of other authors, collected in PMC6295873 (Chemical Science, 2018).

Key:
[1] = MUC1-based anticancer-vaccines; ref 39 (preceding sentence)

| Substance | half-life in blood [min] | immunogenicity [1] |
| --- | --- | --- |
| KP10: endogenous neuropeptide acting through its cognate G-protein-coupled receptor, KiSS1R | < 1 | – |
| natural MUC1 glycoprotein: densely O-glycosylated human mucin glycoprotein | – | very low immunogenicity |
